The data set deals with the molecule itself. The experiment in a line: cryo-EM structure; CLC-ec1 in Salipro (Saposin-A, POPE/POPG) nanoparticles, 10 mM Hepes, 150 mM NaCl, pH 7.5; C2 symmetry imposed.

B1: CLC-ec1 (wild type) (natural protein, E. coli)
chain: MKTDTPSLETPQAARLRRRQLIRQLLERDKTPLAILFMAAVVGTLVGLAAVAFDKGVAWLQNQRMGALVHTADNYPLLLTVAFLCSAVLAMFGYFLVRKYAPEAGGSGIPEIEGALEDQRPVRWWRVLPVKFFGGLGTLGGGMVLGREGPTVQIGGNIGRMVLDIFRLKGDEARHTLLATGAAAGLAAAFNAPLAGILFIIEEMRPQFRYTLISIKAVFIGVIMSTIMYRIFNHEVALIDVGKLSDAPLNTLWLYLILGIIFGIFGPIFNKWVLGMQDLLHRVHGGNITKWVLMGGAIGGLCGLLGFVAPATSGGGFNLIPIATAGNFSMGMLVFIFVARVITTLLCFSSGAPGGIFAPMLALGTVLGTAFGMVAVELFPQYHLEAGTFAIAGMGALLAASIRAPLTGIILVLEMTDNYQLILPMIITGLGATLLAQFTGGKPLYSAILARTLAKQEAEQLARSK
notes: CLC-ec1, the E. coli CLC Cl-/H+ exchange transporter homolog; The eluate of the cobalt column was incubated with Endoproteinase Lys-C; Homodimer in the cryo-EM maps (C2 symmetry imposed); also called WT CLC-ec1; WT
As to B1, the binding result is given as “binds”.

The values above are taken from publication doi:10.1101/2025.05.08.652968, “Molecular mechanism of exchange coupling in CLC chloride/proton antiporters” (bioRxiv, 2025).
